Measured values published in the supplement of paper PMC10567573.

B1: ELF3 (parent)
chain: LSKEYWDCLEGKKSKHAPRGTHLW

Variants of: B1
Experiment: protein stability index of a GFP-peptide fusion (GPS, HEK-293T) (PSI 1-6); higher = more stable
Conditions: c terminus: a fixed tail appended
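Note: lentivirally expressed fusions sorted by FACS into six bins by GFP to DsRed ratio, PSI derived from sequencing read proportions per bin multiplied by bin number.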

Row | Variant | protein stability index
1 | LSKEYWDCLEGKKSKHAPRGTHLI [W24I] | 2.94
2 | LSKEYWDCLEGKKSKHAPRGTHLD [W24D] | 4.02
3 | LSKEYWDCLEGKKSKHAPRGTHLS [W24S] | 4.08
4 | LSKEYWDCLEGKKSKHAPRGTHLT [W24T] | 4.05
5 | LSKEYWDCLEGKKSKHAPRGTHLE [W24E] | 4.33
6 | LSKEYWDCLEGKKSKHAPRGTHLA [W24A] | 3.96
7 | LSKEYWDCLEGKKSKHAPRGTHLM [W24M] | 3.83
8 | LSKEYWDCLEGKKSKHAPRGTHLR [W24R] | 3.54
9 | LSKEYWDCLEGKKSKHAPRGTHLQ [W24Q] | 3.8
10 | LSKEYWDCLEGKKSKHAPRGTHLP [W24P] | 4.15
11 | LSKEYWDCLEGKKSKHAPRGTHLV [W24V] | 2.96
12 | LSKEYWDCLEGKKSKHAPRGTHLL [W24L] | 3.3
13 | LSKEYWDCLEGKKSKHAPRGTHLN [W24N] | 3.64
14 | LSKEYWDCLEGKKSKHAPRGTHLG [W24G] | 4.07
15 | LSKEYWDCLEGKKSKHAPRGTHLF [W24F] | 3.6
16 | LSKEYWDCLEGKKSKHAPRGTHLK [W24K] | 4.11
17 | LSKEYWDCLEGKKSKHAPRGTHLY [W24Y] | 2.9
18 | LSKEYWDCLEGKKSKHAPRGTHLC [W24C] | 3.8
19 | LSKEYWDCLEGKKSKHAPRGTHLH [W24H] | 3.98
20 | LSKEYWDCLEGKKSKHAPRWTHLW [G20W] | 1.94
21 | LSKEYWDCLEGKKSKHAPRQTHLW [G20Q] | 3.06
22 | LSKEYWDCLEGKKSKHAPRHTHLW [G20H] | 2.53
23 | LSKEYWDCLEGKKSKHAPRITHLW [G20I] | 1.54
24 | LSKEYWDCLEGKKSKHAPRTTHLW [G20T] | 2.64

Row | Variant | protein stability index
25 | LSKEYWDCLEGKKSKHAPRPTHLW [G20P] | 2.72
26 | LSKEYWDCLEGKKSKHAPRKTHLW [G20K] | 2.59
27 | LSKEYWDCLEGKKSKHAPRVTHLW [G20V] | 2.11
28 | LSKEYWDCLEGKKSKHAPRETHLW [G20E] | 2.59
29 | LSKEYWDCLEGKKSKHAPRDTHLW [G20D] | 2.96
30 | LSKEYWDCLEGKKSKHAPRSTHLW [G20S] | 3.15
31 | LSKEYWDCLEGKKSKHAPRRTHLW [G20R] | 2.64
32 | LSKEYWDCLEGKKSKHAPRLTHLW [G20L] | 2.55
33 | LSKEYWDCLEGKKSKHAPRYTHLW [G20Y] | 2.78
34 | LSKEYWDCLEGKKSKHAPRFTHLW [G20F] | 1.75
35 | LSKEYWDCLEGKKSKHAPRNTHLW [G20N] | 2.74
36 | LSKEYWDCLEGKKSKHAPRATHLW [G20A] | 2.45
37 | LSKEYWDCLEGKKSKHAPRMTHLW [G20M] | 2.44
38 | LSKEYWDCLEGKKSKHAPRCTHLW [G20C] | 2.73
39 | LSKEYWDCLEGKKSKHAPRGWHLW [T21W] | 2.04
40 | LSKEYWDCLEGKKSKHAPRGVHLW [T21V] | 1.8
41 | LSKEYWDCLEGKKSKHAPRGGHLW [T21G] | 2.54
42 | LSKEYWDCLEGKKSKHAPRGPHLW [T21P] | 2.57
43 | LSKEYWDCLEGKKSKHAPRGDHLW [T21D] | 3.45
44 | LSKEYWDCLEGKKSKHAPRGCHLW [T21C] | 2.22
45 | LSKEYWDCLEGKKSKHAPRGQHLW [T21Q] | 2.78
46 | LSKEYWDCLEGKKSKHAPRGLHLW [T21L] | 2.02
47 | LSKEYWDCLEGKKSKHAPRGRHLW [T21R] | 2.78
48 | LSKEYWDCLEGKKSKHAPRGAHLW [T21A] | 3.4

Row | Variant | protein stability index
49 | LSKEYWDCLEGKKSKHAPRGKHLW [T21K] | 3.08
50 | LSKEYWDCLEGKKSKHAPRGMHLW [T21M] | 2.32
51 | LSKEYWDCLEGKKSKHAPRGSHLW [T21S] | 2.24
52 | LSKEYWDCLEGKKSKHAPRGFHLW [T21F] | 2.05
53 | LSKEYWDCLEGKKSKHAPRGIHLW [T21I] | 2.19
54 | LSKEYWDCLEGKKSKHAPRGNHLW [T21N] | 3.1
55 | LSKEYWDCLEGKKSKHAPRGHHLW [T21H] | 2.66
56 | LSKEYWDCLEGKKSKHAPRGYHLW [T21Y] | 2.37
57 | LSKEYWDCLEGKKSKHAPRGEHLW [T21E] | 3.37
58 | LSKEYWDCLEGKKSKHWPRGTHLW [A17W] | 2.4
59 | LSKEYWDCLEGKKSKHVPRGTHLW [A17V] | 3.02
60 | LSKEYWDCLEGKKSKHYPRGTHLW [A17Y] | 2.65
61 | LSKEYWDCLEGKKSKHAGRGTHLW [P18G] | 2.46
62 | LSKEYWDCLEGKKSKHAHRGTHLW [P18H] | 3.24
63 | LSKEYWDCLEGKKSKHAWRGTHLW [P18W] | 2.24
64 | LSKEYWDCLEGKKSKHASRGTHLW [P18S] | 3.13
65 | LSKEYWDCLEGKKSKHADRGTHLW [P18D] | 3
66 | LSKEYWDCLEGKKSKHANRGTHLW [P18N] | 3.36
67 | LSKEYWDCLEGKKSKHAQRGTHLW [P18Q] | 2.96
68 | LSKEYWDCLEGKKSKHAIRGTHLW [P18I] | 2.6
69 | LSKEYWDCLEGKKSKHALRGTHLW [P18L] | 2.43
70 | LSKEYWDCLEGKKSKHAERGTHLW [P18E] | 3.01
71 | LSKEYWDCLEGKKSKHAMRGTHLW [P18M] | 2.31
72 | LSKEYWDCLEGKKSKHAFRGTHLW [P18F] | 2.97

Row | Variant | protein stability index
73 | LSKEYWDCLEGKKSKHARRGTHLW [P18R] | 2.34
74 | LSKEYWDCLEGKKSKHAKRGTHLW [P18K] | 3.39
75 | LSKEYWDCLEGKKSKHAYRGTHLW [P18Y] | 2.73
76 | LSKEYWDCLEGKKSKHACRGTHLW [P18C] | 2.53
77 | LSKEYWDCLEGKKSKHATRGTHLW [P18T] | 3.16
78 | LSKEYWDCLEGKKSKHAARGTHLW [P18A] | 2.68
79 | LSKEYWDCLEGKKSKHAVRGTHLW [P18V] | 2.79
80 | LSKEYWDCLEGKKSKHAPLGTHLW [R19L] | 2.27
81 | LSKEYWDCLEGKKSKHAPIGTHLW [R19I] | 2.38
82 | LSKEYWDCLEGKKSKHAPQGTHLW [R19Q] | 3.79
83 | LSKEYWDCLEGKKSKHAPPGTHLW [R19P] | 2.64
84 | LSKEYWDCLEGKKSKHAPVGTHLW [R19V] | 2.78
85 | LSKEYWDCLEGKKSKHAPYGTHLW [R19Y] | 2.18
86 | LSKEYWDCLEGKKSKHAPTGTHLW [R19T] | 2.85
87 | LSKEYWDCLEGKKSKHAPDGTHLW [R19D] | 3.21
88 | LSKEYWDCLEGKKSKHAPWGTHLW [R19W] | 2.58
89 | LSKEYWDCLEGKKSKHAPGGTHLW [R19G] | 2.68
90 | LSKEYWDCLEGKKSKHAPNGTHLW [R19N] | 2.83
91 | LSKEYWDCLEGKKSKHAPHGTHLW [R19H] | 2.66
92 | LSKEYWDCLEGKKSKHAPKGTHLW [R19K] | 3.06
93 | LSKEYWDCLEGKKSKHAPCGTHLW [R19C] | 2.6
94 | LSKEYWDCLEGKKSKHAPEGTHLW [R19E] | 3.63
